Laboratory results published in patent publication US20240189443A1, “PD-L1 AND TLR7 DOUBLE-TARGETING NANOBODY COUPLING DRUG AND USE THEREOF IN ANTI-TUMOR” (SHANGHAI INSTITUTE OF MATERIA MEDICA, CHINESE ACADEMY OF …, priority 2021, published 2024).
Where a chain is given by its changes, count along the chain named.

B1: h_Nb1_G99R (VHH)
VHH: DVQLQESGGGLVQPGGSLRLSCAASGFTFSSYAMSWVRQAPGKGLEWVSDINSGGDNTDYADSVKGRFTISRDNAKNTLYLQMNSLKPEDTAVYYCARRPKLCFSSWGQGTQVTVSS
notes: also called 103
B2: h_Nb1_C103K (VHH)
VHH: B1 VHH with R99G, C103K
notes: also called 100
B3: h_Nb1_A61K (VHH)
VHH: B1 VHH with A61K, R99G
notes: also called 94
B4: h_Nb1_G99Y (VHH)
VHH: B1 VHH with R99Y
notes: also called 106
B5: h_Nb1_D59R (VHH)
VHH: B1 VHH with D59R, R99G
notes: also called 95
B6: h_Nb1_G99Q (VHH)
VHH: B1 VHH with R99Q
notes: also called 104
B7: h_Nb1_C103M (VHH)
VHH: B1 VHH with R99G, C103M
B8: h_Nb1_A61N (VHH)
VHH: B1 VHH with A61N, R99G
notes: also called 92
B9: h_Nb1_D59F (VHH)
VHH: B1 VHH with D59F, R99G
notes: also called 97
B10: h_Nb1_G99W (VHH)
VHH: B1 VHH with R99W
notes: also called 105
B11: h_Nb1_D62W (VHH)
VHH: B1 VHH with D62W, R99G
notes: also called 98
B12: h_Nb1_C103W (VHH)
VHH: B1 VHH with R99G, C103W
B13: h_Nb1_D62Y (VHH)
VHH: B1 VHH with D62Y, R99G
notes: also called 99
B14: h_Nb1_A61Q (VHH)
VHH: B1 VHH with A61Q, R99G
notes: also called 93
B15: h_Nb1_D59M (VHH)
VHH: B1 VHH with D59M, R99G
notes: also called 96
B16: h_Nb2_G30R (VHH)
VHH: DVQLQESGGGLVQPGGSLRLSCAASGFTFRDRWMYWLRQAPGKGLEWVSSINPAGRSTYYADSVKGRFTISRDNAKNTLYLQMNSLKSEDTAVYYCTKDPGGYQKGQGTQVTVSS
notes: also called 107
B17: h_Nb2_G30F (VHH)
VHH: B16 VHH with R30F
notes: also called 108
B18: h_Nb2_G30W (VHH)
VHH: B16 VHH with R30W
notes: also called 109
B19: h_Nb2_G101R (VHH)
VHH: B16 VHH with R30G, G101R
notes: also called 110
B20: h_Nb2_F29R (VHH)
VHH: B16 VHH with F29R, R30G
notes: also called 113
B21: h_Nb2_F29W (VHH)
VHH: B16 VHH with F29W, R30G
notes: also called 114
B22: h_Nb2_G101W (VHH)
VHH: B16 VHH with R30G, G101W
notes: also called 111

target: T1, PD-L1 (human PD-L1 protein of the ELISA of Example 16) (human, UniProt Q9NZQ7 19-238, limits assumed); test: ELISA; affinity relative to original antibody h_Nb1 VHH (SEQ ID NO.21)
T1 sequence (Q9NZQ7 19-238 limits assumed): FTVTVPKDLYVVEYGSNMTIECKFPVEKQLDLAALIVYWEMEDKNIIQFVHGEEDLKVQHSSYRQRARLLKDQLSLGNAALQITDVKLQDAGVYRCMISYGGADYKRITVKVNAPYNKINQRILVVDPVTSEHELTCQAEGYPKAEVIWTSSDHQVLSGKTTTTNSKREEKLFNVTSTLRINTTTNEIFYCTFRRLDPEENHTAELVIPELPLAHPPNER

Binder	Increased relative affinity [relative]
B1	12.1
B2	3.31
B3	4.12
B4	7.02
B5	4.28
B6	6.16
B7	3.38
B8	5.13
B9	5.12
B10	6.16
B11	11.7
B12	3.83
B13	5.8
B14	4.66
B15	4.9

target: T1, PD-L1 (human PD-L1 protein of the ELISA …); test: ELISA; affinity relative to original antibody h_Nb2 VHH (SEQ ID NO.25)

Binder	Increased relative affinity [relative]
B16	6.23
B17	5.11
B18	10
B19	6.5
B20	1.46
B21	1.44
B22	5.92
